Experiment [1] concerns the target HER2 on SK-BR-3 human breast cancer cells (human) (UniProt P04626). Nature of the experiment: flow cytometry on SK-BR-3 cells, human IgG1, anti-human IgG-FITC detection.
In experiment [2] the target is Biotinylated HER2 extracellular domain (human) (UniProt P04626). In words: SPR (BIAcore), biotinylated HER2 ECD on streptavidin chip, scFv injected, 1:1 Langmuir fit.

In experiment [1], “4D5 as human IgG1, VL 52D (WT/52D) (antibody)” yielded an EC50 of 0.925 µg/mL.

In experiment [2], 4D5-b (4D5 scFv, VL 52D) yielded a Kd of 7.6 nM, a koff of 0.00091 s⁻¹ and a kon of 120000 M⁻¹ s⁻¹.
